Assay results published in paper PMC2291572, “HDP—A Novel Heme Detoxification Protein from the Malaria Parasite” (PLoS Pathogens, 2008).

B1: Heme Detoxification Protein (HDP), native, from P. falciparum-infected RBCs (natural protein, UniProt Q8IL04 1-205, looked up)
chain: MKNRFYYNLIIKRLYTRSGGLRKPQKVTNDPESINRKVYWCFEHKPVKRTIINLIYSHNELKIFSNLLNHPTVGSSLIHELSLDGPYTAFFPSNEAMQLINIESFNKLYNDENKLSEFVLNHVTKEYWLYRDLYGSSYQPWLMYNEKREAPEKLRNLLNNDLIVKIEGEFKHCNHSIYLNGSKIIRPNMKCHNGVVHIVDKPIIF
notes: Heme Detoxification Protein (HDP), Plasmodium falciparum, 205 amino acids; detected as intact HDP according to its predicted size; Called a dimer from bands on immunoblots and a silver-stained gel; also called native HDP; PfHDP; source: endogenous, extracts of P. falciparum trophozoite-infected RBCs and food vacuole preparation; also purified from the infected RBC extract by immunoprecipitation
B2: c-MycHDP (HDP with an amino-terminal c-Myc tag) (natural protein, P. falciparum, UniProt Q8IL04 1-205, looked up)
chain: B1 chain
notes: Heme Detoxification Protein (HDP), Plasmodium falciparum, 205 amino acids; the tag is described as attached to the end of the protein and found intact; also called pc-MycHDP; source: P. falciparum 3D7 parasites, transfected (episomal expression), secreted into infected RBC cytosol; not shown: c-Myc, N-terminal, kept
B3: HDPc-Myc (HDP with a carboxyl-terminal c-Myc tag) (natural protein, P. falciparum, UniProt Q8IL04 1-205, looked up)
chain: B1 chain
notes: Heme Detoxification Protein (HDP), Plasmodium falciparum, 205 amino acids; the tag is described as attached to the end of the protein and found intact; also called pHDPc-Myc; source: P. falciparum 3D7 parasites, transfected (episomal expression), secreted into infected RBC cytosol; not shown: c-Myc, C-terminal, kept

Key:
[1] = target: T1, HDP (Heme Detoxification Protein; PF14_0446) (Plasmodium falciparum, UniProt Q8IL04); assay: isothermal titration calorimetry; type: binding
T1 construct: full length, 205 residues; E. coli BL21 inclusion bodies, N-lauryl sarkosine solubilised

[2] = target: the molecule itself; assay: immunoblot (band of dimer size); Western blot with anti-HDP antibodies on protein extract of trophozoite-infected RBCs; gel conditions not shown
[3] = target: the molecule itself; assay: immunoblot (band of dimer size); Western blot of transfected parasites with a monoclonal antibody against the c-myc tag; protein secreted into infected RBC cytosol

Molecule	stoichiometry N [3]	further results
C=CC1=C(C)C2=Cc3c(C=C)c(C)c4[n]3[Fe]([Cl])[n]3c(c(C)c(CCC(=O)O)c3=CC3=NC(=C4)C(C)=C3CCC(=O)O)=CC1=N2 [heme]		Kd [1]: 80 nM
B1		stoichiometry N [2]: 2
B2	2	
B3	2	
